Test [1] addresses TIGIT protein overexpressed on cells (Homo sapiens (Human)) (UniProt Q495A1). Briefly: flow cytometry on 293T-TIGIT cells, Alexa-647 anti-human Fc, MFI. In general terms: A flow cytometer gives signals particle by particle.
For test [2], the target named is Cynomolgus monkey TIGIT-His tag fusion protein (cynomolgus monkey). Briefly: ELISA, cynomolgus TIGIT-His coated, HRP anti-human IgG, OD450. On the technique in general: An ELISA detects its analyte on a solid surface through an enzyme-linked reagent.
Cynomolgus monkey TIGIT-His tag fusion protein (cynomolgus monkey), sequence (chain, as listed by the source): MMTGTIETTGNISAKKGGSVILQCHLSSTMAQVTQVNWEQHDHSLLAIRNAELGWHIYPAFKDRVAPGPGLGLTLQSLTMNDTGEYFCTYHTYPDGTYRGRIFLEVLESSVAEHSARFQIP

TIGIT protein overexpressed on cells (Homo sapiens (Human)), sequence (Q495A1 22-244): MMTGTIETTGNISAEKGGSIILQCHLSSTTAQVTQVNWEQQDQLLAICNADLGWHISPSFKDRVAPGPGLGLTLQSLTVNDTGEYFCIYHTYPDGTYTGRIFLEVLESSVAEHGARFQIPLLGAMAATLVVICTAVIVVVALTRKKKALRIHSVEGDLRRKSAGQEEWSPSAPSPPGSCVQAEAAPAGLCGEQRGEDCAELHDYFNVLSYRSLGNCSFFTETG

Regarding Tiragolumab analog (antibody), the EC50 (read off the curve) (usually the concentration at which the effect is half-maximal) in test [1] amounted to 0.4 µg/mL; in test [2], 80 ng/mL.

Source of the values: patent publication US20260103513A1.
